In patent US6407214 (CELLTECH THERAPEUTICS, dated 2002):
“And” between values parts separate entries of the source, which are not always exact repeats. Identical values can stand only once. One block for each binder: values may come before it.

Key:
[1] = target: T1, Lectin/EGF fragment from E-selectin (UniProt P16581 22-178, limits assumed); test: BIAcore SPR, antibody immobilised, lectin/EGF fragment in fluid phase; duplicate
T1 construct: domain: Lectin/EGF fragment; Soluble fragment; also called lectin/EGF fragment of E-selectin
T1 sequence (looked up): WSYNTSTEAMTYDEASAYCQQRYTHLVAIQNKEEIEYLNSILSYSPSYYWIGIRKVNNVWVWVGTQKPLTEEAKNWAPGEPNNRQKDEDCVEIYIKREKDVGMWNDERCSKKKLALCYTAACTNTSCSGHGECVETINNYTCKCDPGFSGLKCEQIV
Experimental: (§1) The affinity of both mouse and CDR-grafted ENA-2 for E-selectin were measured using a BIAcore TH biosensor (Pharmacia). This instrument combines miniaturised fluid delivery with an optical detection system based on surface plasmon resonance, to monitor protein interactions in real time (Chaiken et al, (1991) Anal. Biochem 201 197–210). The antibodies were immobilised at similar densities onto the sensor surface and the lectin/EGF fragment of E-selectin used as antigen in the fluid phase.
(§2) Assays of both antibodies were run at the same time using the same dilutions of antigen. The KD measurements are given below. KD Measurements

[2] = target: T1, Lectin/EGF fragment from E-selectin; test: BIAcore SPR, antibody immobilised, lectin/EGF fragment in fluid phase; average
Experimental: as §1, §2

- Kd [1]: 5.38 nM and 5.48 nM
- Kd [2]: 5.43 nM
B1: mouse ENA-2 (antibody, V domains shown)
VH: QVQLQQSGTELVRPGASVTLSCKASGYTFTDHEMHWVKQTPVLGLEWIGTIDPETGGTAYNQKFKGKATLTADKSSTTAYMDLRGLTSEDSAVFYCTVLRMDYWGQGTSLTVSA
VL: DIVMTQSPSSLTVTAGEKVTMRCKSSQSLLNSGNQQNYLTWYQQKPGQPPKLLIYWASTRESGVPDRFTGSGSGTDFTLTISSVQTEDLAVYYCQNDYDYPLTFGAGTKLEIKR
notes: Mouse IgG1/kappa whole antibody purified from hybridoma supernatant; The entries may include leader residues; also called mENA-2; murine ENA-2

- Kd [1]: 7.8 nM and 8.17 nM
- Kd [2]: 7.98 nM
B2: CDR-grafted ENA-2 (hENA-2 wt) (antibody, V domains shown)
VH: QVQLVQSGAEVKKPGSSVKVSCKASGYTFTDHEMHWVRQAPGQGLEWIGTIDPETGGTAYNQKFKGRATLTADKSTNTAYMDLSSLRSEDTAVYYCTVLRMDYWGQGTLVTVSS
VL: DIQMTQSPSTLSASVGDRVTITCKSSQSLLNSGNQQNYLTWYQQKPGKAPKLLIYWASTRESGVPDRFTGSGSGTDFTLTISSLQPDDFAVYYCQNDYDYPLTFGQGTKVEIKR
notes: CDR-grafted on human Eu frameworks, with a human kappa light chain (pENA204); Both gamma 1 (pENA212) and gamma 4 (pENA206) heavy chain vectors were made; The FcRI comparison uses the gamma 4 wild type; also called hEN2; gamma 4
